# Assay results from article PMC9467613 (mAbs, 2022).
# Target: B7-H4 purified monomeric recombinant human protein (Homo sapiens, UniProt Q7Z7D3)
# Experiment: SPR
# Sequence of B7-H4 purified monomeric recombinant human protein (Q7Z7D3 25-259): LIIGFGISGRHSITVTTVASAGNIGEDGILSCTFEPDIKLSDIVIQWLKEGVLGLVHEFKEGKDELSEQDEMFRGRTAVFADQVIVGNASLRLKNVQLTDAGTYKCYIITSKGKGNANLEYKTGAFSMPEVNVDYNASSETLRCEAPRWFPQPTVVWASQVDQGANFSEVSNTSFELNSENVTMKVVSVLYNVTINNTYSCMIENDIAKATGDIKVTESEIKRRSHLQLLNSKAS
Binder,Kd,koff,kon
"A01 (scFv, V domains shown) VH: EVQLVESGGGVVQPGRSLRLSCAASGFTFSNKAMNWVRQAPGKGLEWVSAISGSGATTYYADSVKGRFTISRDNSKNTLYLQMNSLRAEDTAVYYCARKRWYGMDVWGQGTTVTVSS VL: SYELTQPPSVSVAPGKTARITCGGNNIGSKSVHWYQQKPGQAPVLVVYDDSDRPSGIPERFSGSNSGNTATLTISRVEAGDEADYYCQVWDRGMIFGTGTKLTVL",0.224 nM,3.7e-05 s⁻¹,170000 M⁻¹ s⁻¹
"B11 (scFv, V domains shown) VH: EVQLVESGGGVVQPGRSLRLSCAASGFTFTSRAMNWVRQAPGKGLEWVSAISGSGATAYYADSVKGRFTISRDNSKNTLYLQMNSLRAEDTAVYYCARKRWYGMDVWGQGTTVTVSS VL: SYELTQPPSVSVAPGKTARITCGGNNIGSKSVHWYQQKPGQAPVLVVYDDSDRPSGIPERFSGSNSGNTATLTISRVEAGDEADYYCQVWDRGMIFGTGTKLTVL",0.068 nM,1.2e-05 s⁻¹,180000 M⁻¹ s⁻¹
"B04 (scFv, V domains shown) VH: EVQLVESGGGVVQPGRSLRLSCAASGFSFSSRAMNWVRQAPGKGLEWVSAVSGSGSGTYYADSVKGRFTISRDNSKNTLYLQMNSLRAEDTAVYYCARKRWYGMDVWGQGTTVTVSS VL: SYELTQPPSVSVAPGKTARITCGGNNIGLKSVHWYQQKPGQAPVLVVYDDSDRPSGIPERFSGSNSGNTATLTISRVEAGDEADYYCQVWDRGMIFGTGTKLTVL",0.172 nM,2.7e-05 s⁻¹,160000 M⁻¹ s⁻¹
"A04 (scFv, V domains shown) VH: EVQLVESGGGVVQPGRSLRLSCAASGFTFSSRSMNWVRQAPGKGLEWVSAISGSGDTTYYADSVKGRFTISRDNSKNTLYLQMNSLRAEDTAVYYCARKRWYGMDVWGQGTTVTVSS VL: SYELTQPPSVSVAPGKTARITCGGNNIGSKSVHWYQQKPGQAPVLVVYDDSDRPSGIPERFSGSNSGNTATLTISRVEAGDEADYYCQVWDRGMIFGTGTKLTVL",0.069 nM,2.1e-05 s⁻¹,310000 M⁻¹ s⁻¹
"B07 (scFv, V domains shown) VH: EVQLVESGGGVVQPGRSLRLSCAASGFTFGDRAMNWVRQAPGKGLEWVSAISGSGATTYYADSVKGRFTISRDNSKNTLYLQMNSLRAEDTAVYYCARKRWYGMDVWGQGTTVTVSS VL: SYELTQPPSVSVAPGKTARITCGGNNIGSKSVHWYQQKPGQAPVLVVYDDSDRPSGIPERFSGSNSGNTATLTISRVEAGDEADYYCQVWDRGMIFGTGTKLTVL",0.054 nM,1.8e-05 s⁻¹,330000 M⁻¹ s⁻¹
"B08 (scFv, V domains shown) VH: EVQLVESGGGVVQPGRSLRLSCAASGFTFSDRAMNWVRQAPGKGLEWVSAISASGASRYYADSVKGRFTISRDNSKNTLYLQMNSLRAEDTAVYYCARKRWYGMDVWGQGTTVTVSS VL: SYELTQPPSVSVAPGKTARITCGGNNIGSKSVHWYQQKPGQAPVLVVYDDSDRPSGIPERFSGSNSGNTATLTISRVEAGDEADYYCQVWDRGMIFGTGTKLTVL",0.117 nM,1.8e-05 s⁻¹,150000 M⁻¹ s⁻¹
"A11 (scFv, V domains shown) VH: EVQLVESGGGVVQPGRSLRLSCAASGFTFSSRSMNWVRQAPGKGLEWVSAISGSGSTVYYADSVKGRFTISRDNSKNTLYLQMNSLRAEDTAVYYCARKRWYGMDVWGQGTTVTVSS VL: SYELTQPPSVSVAPGKTARITCGGNNIGSKSVHWYQQKPGQAPVLVVYDDSDRPSGIPERFSGSNSGNTATLTISRVEAGDEADYYCQVWDRGMIFGTGTKLTVL",0.06 nM,1.1e-05 s⁻¹,190000 M⁻¹ s⁻¹
"A02 (scFv, V domains shown) VH: EVQLVESGGGVVQPGRSLRLSCAASGFTFTSRAMNWVRQAPGKGLEWVSAISYEGRTQYYADSVKGRFTISRDNSKNTLYLQMNSLRAEDTAVYYCARKRWYGMDVWGQGTTVTVSS VL: SYELTQPPSVSVAPGKTARITCGGNNIGSKSVHWYQQKPGQAPVLVVYDDSDRPSGIPERFSGSNSGNTATLTISRVEAGDEADYYCQVWDRGMIFGTGTKLTVL",0.039 nM,1.1e-05 s⁻¹,280000 M⁻¹ s⁻¹
"B09 (scFv, V domains shown) VH: EVQLVESGGGVVQPGRSLRLSCAASGFTYSSRAMNWVRQAPGKGLEWVSAISSSGTTTYYADSVKGRFTISRDNSKNTLYLQMNSLRAEDTAVYYCARKRWYGMDVWGQGTTVTVSS VL: SYELTQPPSVSVAPGKTARITCGGNNIGSKSVHWYQQKPGQAPVLVVYDDSDRPSGIPERFSGSNSGNTATLTISRVEAGDEADYYCQVWDRGMIFGTGTKLTVL",0.118 nM,2.5e-05 s⁻¹,210000 M⁻¹ s⁻¹
"A09 (scFv, V domains shown) VH: EVQLVESGGGVVQPGRSLRLSCAASGFTFSSRSMNWVRQAPGKGLEWVSAISGSGLTSYYADSVKGRFTISRDNSKNTLYLQMNSLRAEDTAVYYCARKRWYGMDVWGQGTTVTVSS VL: SYELTQPPSVSVAPGKTARITCGGNNIGSKSVHWYQQKPGQAPVLVVYDDSDRPSGIPERFSGSNSGNTATLTISRVEAGDEADYYCQVWDRGMIFGTGTKLTVL",0.074 nM,1.1e-05 s⁻¹,160000 M⁻¹ s⁻¹
"A10 (scFv, V domains shown) VH: EVQLVESGGGVVQPGRSLRLSCAASGFTFSSRSMNWVRQAPGKGLEWVSAISGTGYTTYYADSVKGRFTISRDNSKNTLYLQMNSLRAEDTAVYYCARKRWYGMDVWGQGTTVTVSS VL: SYELTQPPSVSVAPGKTARITCGGNNIGSKSVHWYQQKPGQAPVLVVYDDSDRPSGIPERFSGSNSGNTATLTISRVEAGDEADYYCQVWDRGMIFGTGTKLTVL",0.103 nM,1.4e-05 s⁻¹,140000 M⁻¹ s⁻¹
"A05 (scFv, V domains shown) VH: EVQLVESGGGVVQPGRSLRLSCAASGFTYSSRAMNWVRQAPGKGLEWVSAISGSGSNAYYADSVKGRFTISRDNSKNTLYLQMNSLRAEDTAVYYCARKRWYGMDVWGQGTTVTVSS VL: SYELTQPPSVSVAPGKTARITCGGNNIGSKSVHWYQQKPGQAPVLVVYDDSDRPSGIPERFSGSNSGNTATLTISRVEAGDEADYYCQVWDRGMIFGTGTKLTVL",0.117 nM,2.2e-05 s⁻¹,190000 M⁻¹ s⁻¹
"B02 (scFv, V domains shown) VH: EVQLVESGGGVVQPGRSLRLSCAASGFTFSSRSMNWVRQAPGKGLEWVSAISGSGSTVYYADSVKGRFTISRDNSKNTLYLQMNSLRAEDTAVYYCARKRWYGMDVWGQGTTVTVSS VL: SYELTQPPSVSVAPGKTARITCGGNNIGVKSVHWYQQKPGQAPVLVVYDDSDRSPGIPERFSGSNSGNTATLTISRVEAGDEADYYCQVWDSRTYVFGTGTKLTVL",0.059 nM,1.1e-05 s⁻¹,180000 M⁻¹ s⁻¹
"B03 (scFv, V domains shown) VH: EVQLVESGGGVVQPGRSLRLSCAASGFTFGDRAMNWVRQAPGKGLEWVSAISGSGSGTYYADSVKGRFTISRDNSKNTLYLQMNSLRAEDTAVYYCARKRWYGMDVWGQGTTVTVSS VL: SYELTQPPSVSVAPGKTARITCGGNNIGMKSVHWYQQKPGQAPVLVVYDDSDRPSGIPERFSGSNSGNTATLTISRVEAGDEADYYCQVWDRGMIFGTGTKLTVL",0.07 nM,2.1e-05 s⁻¹,300000 M⁻¹ s⁻¹
"A08 (scFv, V domains shown) VH: EVQLVESGGGVVQPGRSLRLSCAASGFTFGDRAMNWVRQAPGKGLEWVSAISSSGTTSYYADSVKGRFTISRDNSKNTLYLQMNSLRAEDTAVYYCARKRWYGMDVWGQGTTVTVSS VL: SYELTQPPSVSVAPGKTARITCGGNNIGSKSVHWYQQKPGQAPVLVVYDDSDRPSGIPERFSGSNSGNTATLTISRVEAGDEADYYCQVWDRGMIFGTGTKLTVL",0.043 nM,1.3e-05 s⁻¹,310000 M⁻¹ s⁻¹
"B10 (scFv, V domains shown) VH: EVQLVESGGGVVQPGRSLRLSCAASGFTFSTRAMNWVRQAPGKGLEWVSAISGTGDTTYYADSVKGRFTISRDNSKNTLYLQMNSLRAEDTAVYYCARKRWYGMDVWGQGTTVTVSS VL: SYELTQPPSVSVAPGKTARITCGGNNIGSKSVHWYQQKPGQAPVLVVYDDSDRPSGIPERFSGSNSGNTATLTISRVEAGDEADYYCQVWGRYQMIFGTGTKLTVL",0.116 nM,2.9e-05 s⁻¹,260000 M⁻¹ s⁻¹
"B06 (scFv, V domains shown) VH: EVQLVESGGGVVQPGRSLRLSCAASGFTFSNKAMNWVRQAPGKGLEWVSAISGSGATTYYADSVKGRFTISRDNSKNTLYLQMNSLRAEDTAVYYCARKRWYGMDVWGQGTTVTVSS VL: SYELTQPPSVSVAPGKTARITCGGNNIGVKAVHWYQQKPGQAPVLVVYDDSDRPSGIPERFSGSNSGNTATLTISRVEAGDEADYYCQVWDRGMIFGTGTKLTVL",0.097 nM,1.7e-05 s⁻¹,170000 M⁻¹ s⁻¹
"B12 (scFv, V domains shown) VH: EVQLVESGGGVVQPGRSLRLSCAASGFTFSDRAMNWVRQAPGKGLEWVSAISGTGASTYYADSVKGRFTISRDNSKNTLYLQMNSLRAEDTAVYYCARKRWYGMDVWGQGTTVTVSS VL: SYELTQPPSVSVAPGKTARITCGGNNIGSKSVHWYQQKPGQAPVLVVYDDSDRPSGIPERFSGSNSGNTATLTISRVEAGDEADYYCQVWDRGMIFGTGTKLTVL",0.084 nM,2.8e-05 s⁻¹,340000 M⁻¹ s⁻¹
"A07 (scFv, V domains shown) VH: EVQLVESGGGVVQPGRSLRLSCAASGFTFSSRSMNWVRQAPGKGLEWVSAISGSGSTVYYADSVKGRFTISRDNSKNTLYLQMNSLRAEDTAVYYCARKRWYGMDVWGQGTTVTVSS VL: SYELTQPPSVSVAPGKTARITCGGNNIGSKSVHWYQQKPGQAPVLVVYDDSDRPSGIPERFSGSNSGNTATLTISRVEAGDEADYYCQVWDSRTYVFGTGTKLTVL",0.277 nM,4.7e-05 s⁻¹,170000 M⁻¹ s⁻¹
"A12 (scFv, V domains shown) VH: EVQLVESGGGVVQPGRSLRLSCAASGFTFDNRAMNWVRQAPGKGLEWVSAISSSGSTMYYADSVKGRFTISRDNSKNTLYLQMNSLRAEDTAVYYCARKRWYGMDVWGQGTTVTVSS VL: SYELTQPPSVSVAPGKTARITCGGNNIGSKSVHWYQQKPGQAPVLVVYDDSDRPSGIPERFSGSNSGNTATLTISRVEAGDEADYYCQVWDSRTYVFGTGTKLTVL",0.139 nM,3.2e-05 s⁻¹,230000 M⁻¹ s⁻¹
